Values belong to the binder of their own block, whether it stands above or below them.
Key:
IGF-1R on MCF-7 cells = IGF-1R on MCF-7 cells (UniProt P08069 31-1367, limits assumed); assay: cell-based or functional assay
Human IGF-1R protein = target: T1, Human IGF-1R protein (human, UniProt P08069 31-932); assay: BLI (Octet RED96), antibody captured on AHC biosensor, IGF-1R in solution, 1:1 model
T1 construct: Bought protein; also called human IGF-1R (ARCO, No. IGR-H5229)
Text: After 14 days of culture, the culture supernatant was collected by centrifugation, and purify the antibodies with affinity purification column. Octet RED96 protein interaction workstation was used to detect the affinity of the above purified antibodies with human IGF-1R (Human IGF-1R, ARCO, No. IGR-H5229) separately. Biosensor AHC (18-5060) was used to capture the samples, and then the captured samples were compared with human IGF-1R. The dynamics of binding and dissociation of […] were detected. Dynamics uses 1:1 combined model for fitting analysis. The brief action steps are: protein loading for 200 s, binding for 180 s, dissociation for 300 s, regeneration for 30 s.

Chain of IGF-1R on MCF-7 cells (P08069 31-1367 limits assumed): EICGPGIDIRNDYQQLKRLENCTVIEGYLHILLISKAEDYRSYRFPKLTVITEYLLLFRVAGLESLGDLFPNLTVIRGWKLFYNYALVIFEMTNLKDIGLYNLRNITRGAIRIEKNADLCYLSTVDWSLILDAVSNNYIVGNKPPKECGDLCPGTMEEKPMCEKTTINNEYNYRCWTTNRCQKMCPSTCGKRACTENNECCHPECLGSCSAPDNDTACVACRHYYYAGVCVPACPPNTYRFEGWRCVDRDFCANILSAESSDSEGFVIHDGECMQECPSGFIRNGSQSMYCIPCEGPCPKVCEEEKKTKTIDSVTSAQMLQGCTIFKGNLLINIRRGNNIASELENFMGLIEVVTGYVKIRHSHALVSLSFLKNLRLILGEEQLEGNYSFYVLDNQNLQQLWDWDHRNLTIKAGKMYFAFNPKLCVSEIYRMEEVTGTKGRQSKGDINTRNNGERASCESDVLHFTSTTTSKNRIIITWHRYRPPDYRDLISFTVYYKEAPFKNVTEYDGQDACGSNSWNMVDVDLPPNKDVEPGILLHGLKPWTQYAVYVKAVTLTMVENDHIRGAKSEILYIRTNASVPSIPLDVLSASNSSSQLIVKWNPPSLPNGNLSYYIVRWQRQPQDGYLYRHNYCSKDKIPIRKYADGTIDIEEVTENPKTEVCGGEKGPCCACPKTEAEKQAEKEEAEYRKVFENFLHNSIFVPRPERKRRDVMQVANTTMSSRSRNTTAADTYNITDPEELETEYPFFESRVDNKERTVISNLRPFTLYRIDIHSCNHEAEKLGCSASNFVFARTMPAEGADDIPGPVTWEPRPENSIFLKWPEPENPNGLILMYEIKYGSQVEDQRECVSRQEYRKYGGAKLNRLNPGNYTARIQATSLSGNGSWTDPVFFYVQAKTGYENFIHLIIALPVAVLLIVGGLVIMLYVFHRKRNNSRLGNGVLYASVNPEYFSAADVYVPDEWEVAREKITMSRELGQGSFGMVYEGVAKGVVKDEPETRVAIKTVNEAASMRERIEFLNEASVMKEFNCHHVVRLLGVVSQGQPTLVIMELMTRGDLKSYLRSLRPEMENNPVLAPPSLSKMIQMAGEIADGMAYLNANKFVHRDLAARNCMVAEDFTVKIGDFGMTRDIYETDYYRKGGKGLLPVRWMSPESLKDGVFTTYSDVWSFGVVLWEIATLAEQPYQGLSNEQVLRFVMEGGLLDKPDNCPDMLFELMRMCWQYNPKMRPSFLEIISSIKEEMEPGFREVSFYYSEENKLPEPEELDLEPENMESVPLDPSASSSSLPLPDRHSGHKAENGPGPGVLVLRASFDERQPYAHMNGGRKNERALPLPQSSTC
T1 sequence (P08069 31-932 limits assumed): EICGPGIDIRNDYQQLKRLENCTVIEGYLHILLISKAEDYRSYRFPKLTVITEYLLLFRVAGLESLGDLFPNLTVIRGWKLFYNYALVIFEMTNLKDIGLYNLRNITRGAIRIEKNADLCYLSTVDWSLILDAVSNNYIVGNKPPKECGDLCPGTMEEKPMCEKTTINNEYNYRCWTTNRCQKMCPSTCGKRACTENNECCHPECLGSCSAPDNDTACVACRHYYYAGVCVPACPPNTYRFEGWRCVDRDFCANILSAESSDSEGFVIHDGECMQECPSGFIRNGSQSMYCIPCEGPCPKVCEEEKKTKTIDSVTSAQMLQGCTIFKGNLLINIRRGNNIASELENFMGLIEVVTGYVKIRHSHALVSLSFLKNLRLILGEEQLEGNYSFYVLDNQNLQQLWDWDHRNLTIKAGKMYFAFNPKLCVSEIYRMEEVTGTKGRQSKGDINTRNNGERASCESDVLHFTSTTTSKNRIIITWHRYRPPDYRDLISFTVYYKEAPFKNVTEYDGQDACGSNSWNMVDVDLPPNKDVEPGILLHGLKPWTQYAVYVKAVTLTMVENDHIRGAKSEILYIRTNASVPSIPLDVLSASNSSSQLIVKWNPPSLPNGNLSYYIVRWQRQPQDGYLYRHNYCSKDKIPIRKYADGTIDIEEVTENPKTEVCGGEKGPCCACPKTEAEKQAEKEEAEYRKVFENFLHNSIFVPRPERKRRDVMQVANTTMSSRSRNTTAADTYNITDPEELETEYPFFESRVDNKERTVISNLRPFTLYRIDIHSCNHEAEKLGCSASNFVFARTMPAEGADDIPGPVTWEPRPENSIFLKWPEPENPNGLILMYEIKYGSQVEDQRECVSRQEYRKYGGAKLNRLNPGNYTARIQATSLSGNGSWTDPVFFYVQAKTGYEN

B1: PHP1003-6 (antibody, human IgG1, kappa, L234A L235A, V domains shown)
VH: QVQLQESGGGVVQPGRSLRLSCSASGFTFSDYYMYWVRQAPGKGLEWVAYITNYGGSTYYPDTVKGRFTISRDNAKNTLFLQMDSLRPEDTGVYFCARQSNYDYDGWFAYWGQGTPVTVSS
VL: DIQLTQSPSSLSASVGDRVTITCKASQEVGTAVAWYQQKPGKAPKLLIYWASTRHTGVPSRFSGSGSGTDFTFTISSLQPEDIATYFCQQYSNYPLTFGQGTKVEIKR
notes: Variable and constant regions are directly spliced
IC50 of inhibition of MCF-7 cell proliferation (CCK8, OD450) (IGF-1R on MCF-7 cells): 3.81 mg/L
Kd (Human IGF-1R protein): 1.12 nM
koff (Human IGF-1R protein): 0.000472 s⁻¹
kon (Human IGF-1R protein): 422000 M⁻¹ s⁻¹

B2: PHP1003-4 (antibody, human IgG1, kappa, L234A L235A, V domains shown)
VH: EVQLVQSGAEVKKPGSSVKVSCKASGGTFSSYAISWVRQAPGQGLEWMGGIIPIFGTANYAQKFQGRVTITADKSTSTAYMELSSLRSEDTAVYYCARAPLRFLEWSTQDHYYYYYMDVWGKGTTVTVSS
VL: SSELTQDPAVSVALGQTVRITCQGDSLRSYYATWYQQKPGQAPILVIYGENKRPSGIPDRFSGSSSGNTASLTITGAQAEDEADYYCKSRDGSGQHLVFGGGTKLTVLR
notes: as for B1
IC50 of inhibition of MCF-7 cell proliferation (CCK8, OD450) (IGF-1R on MCF-7 cells): 4.05 mg/L
Kd (Human IGF-1R protein): 5.91 nM
koff (Human IGF-1R protein): 0.00146 s⁻¹
kon (Human IGF-1R protein): 247000 M⁻¹ s⁻¹

B3: PHP1003-1 (antibody, human IgG1, kappa, L234A L235A, V domains shown)
VH: QVQLQESGPGLVKPSGTLSLTCAVSGGSISSSNWWSWVRQPPGKGLEWIGEIYHSGSTNYNPSLKSRVTISVDKSKNQFSLKLSSVTAADTAVYYCARWTGRTDAFDIWGQGTMVTVSS
VL: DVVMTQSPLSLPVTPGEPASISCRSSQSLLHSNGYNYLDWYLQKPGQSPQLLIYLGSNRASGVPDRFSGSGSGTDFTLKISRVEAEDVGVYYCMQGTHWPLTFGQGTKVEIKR
notes: Variable and constant regions are directly spliced; also called anti-IGF-1R antibody PHP1003-1
IC50 of inhibition of MCF-7 cell proliferation (CCK8, OD450) (IGF-1R on MCF-7 cells): 2.37 mg/L
Kd (Human IGF-1R protein): 1.27 nM
koff (Human IGF-1R protein): 0.000347 s⁻¹
kon (Human IGF-1R protein): 274000 M⁻¹ s⁻¹

B6: PHP1003-5 (antibody, human IgG1, kappa, L234A L235A, V domains shown)
VH: EVQLLESGGGLVQPGGSLRLSCTASGFTFSSYAMNWVRQAPGKGLEWVSAISGSGGTTFYADSVKGRFTISRDNSRTTLYLQMNSLRAEDTAVYYCAKDLGWSDSYYYYYGMDVWGQGTTVTVSS
VL: DIQMTQFPSSLSASVGDRVTITCRASQGIRNDLGWYQQKPGKAPKRLIYAASRLHRGVPSRFSGSGSGTEFTLTISSLQPEDFATYYCLQHNSYPCSFGQGTKLEIKR
notes: as for B1
IC50 of inhibition of MCF-7 cell proliferation (CCK8, OD450) (IGF-1R on MCF-7 cells): 0.96 mg/L
Kd (Human IGF-1R protein): 0.701 nM
koff (Human IGF-1R protein): 0.000396 s⁻¹
kon (Human IGF-1R protein): 565000 M⁻¹ s⁻¹

Continued by falling Kd (Human IGF-1R protein), values first:

IC50 of inhibition of MCF-7 cell proliferation (CCK8, OD450) (IGF-1R on MCF-7 cells): 2.14 mg/L
Kd (Human IGF-1R protein): 8.98 nM
koff (Human IGF-1R protein): 0.000883 s⁻¹
kon (Human IGF-1R protein): 98300 M⁻¹ s⁻¹
B4: PHP1003-7 (antibody, human IgG1, kappa, L234A L235A, V domains shown)
VH: QVQLQESGPGLVKPSETLSLTCTVSGYSITGGYLWNWIRQPPGKGLEWIGYISYDGTNNYKPSLKDRVTISRDTSKNQFSLKLSSVTAADTAVYYCARYGRVFFDYWGQGTLVTVSS
VL: DIVMTQSPLSLPVTPGEPASISCRSSQSIVHSNGNTYLQWYLQKPGQSPQLLIYKVSNRLYGVPDRFSGSGSGTDFTLKISRVEAEDVGVYYCFQGSHVPWTFGQGTKVEIKR
notes: as for B1

IC50 of inhibition of MCF-7 cell proliferation (CCK8, OD450) (IGF-1R on MCF-7 cells): 3.93 mg/L
Kd (Human IGF-1R protein): 3.83 nM
koff (Human IGF-1R protein): 0.000874 s⁻¹
kon (Human IGF-1R protein): 228000 M⁻¹ s⁻¹
B5: PHP1003-2 (antibody, human IgG1, kappa, L234A L235A, V domains shown)
VH: EVQLVQSGGGLVKPGGSLRLSCAASGFTFSSFAMHWVRQAPGKGLEWISVIDTRGATYYADSVKGRFTISRDNAKNSLYLQMNSLRAEDTAVYYCARLGNFYYGMDVWGQGTTVTVSS
VL: EIVLTQSPGTLSVSPGERATLSCRASQSIGSSLHWYQQKPGQAPRLLIKYASQSLSGIPDRFSGSGSGTDFTLTISRLEPEDFAVYYCHQSSRLPHTFGQGTKVEIKR
notes: as for B1

Reference: US20230127946A1 (SUZHOU PRO HEAL PHARMACEUTICALS TECHNOLOGY, published 2023)
